Test: yeast display, Sf9 membrane polyspecificity reagent, FACS + sequencing; frameworks hold sequencing errors
Method in brief: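 After 36–48 hours of galactose induction, yeast (Saccharomyces cerevisiae BJ5465) displaying a synthetic nanobody library were stained at 4 °C for 1 hour with 10% biotinylated, detergent-solubilized Sf9 membrane reagent. Streptavidin microbeads enriched the stained cells before FACS sorting into low and high (top ~1%) gates on anti-HA and streptavidin fluorescence. Each clone's polyreactivity label reflects its gate of origin.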

Sequence	polyreactivity (PSR sort gate)
QVQLVESGGGLVQAGGSLRLSCAASGGNFESNAMGWYRQAHGKERELVAAISWSGGTTYYADSVKGRFTISRDNAKNTDFLQMNSLKPEDTAVYYCAKVPFSYRSFGYWGQGTQVTVSS	low polyreactivity
QVQLVESRGCLVQAGGSLRLSCAASGSIFVNNAMGWYRPAPGYERELCAAITSGTRTNYADSVKGRFTISRDNAKNTVYLQMNSLKPEDTAVYYCATESAQYSWYYPGHPGYGYWGQGSQVTVSS	low polyreactivity
QVQLVESGGGLVQAGGSLRLSCAASGRIFAGYAMGWYRQAPGKERELVASIRYSGGSTYADSVKGRFPISRDNAKNTVYLQMNSLKAEDTAVYYCAADIRQFYVGWGSTLWYGHDYWGQGTQVTVSS	low polyreactivity
QVQLVESGGGLVQAGGSLRLSCAASGSIFRKNAMGWYRQAPGKERELVAAITGTGRTTYADSVKGRFTISRDNAKNTVYLQMNSLKPEDTAVYYCATSYHRRYDYWGQGTQVTVSS	low polyreactivity
QVQLVESGGGLVQAGGSLRLSCAASGRIFKRNAMGWYRQAPGKERELVAAISSRVGRTYYADSVKGRFTISRDNAKNTVYLQMNSLKPEDTAVYYCAADTYTYYDYDYWGQGTQVTVSS	high polyreactivity
QVQLVESGGGLVQAGGSLRLSCAASGLIFTWNAMGWYRQAPGKEREFVAAISTGGSTSYADSVKGRFTISRDNAKNTVYLQMNRLKPEDTAVYYCARDSSIWSHGSWYDYWGQGTQVTVSS	low polyreactivity
QVQLVESGGGLVQAGGSLRLSCAASGLTFNRYAMGWYRQARGKERELVAAISINGGSTYYADSVKGRFTISRDNAKNTVYLQMNSLKPEDTAVYYCAARRVQRPSTYGYWGQGTQVTVSS	high polyreactivity
QVQLVESGGGVVQAGGSLRLSCAASGSTFYPNAMGWYRQAPGKERELVAAISRGTRTKYADSVKGRFTISRDNAKNTVYLQMNSLKPEDTAVYYCAADTGTGLDWGQGTQVTVSS	high polyreactivity
QVQLVESGGGLVQAGGSLRLSCAASGSIFDRYDMGWYRQAPGKERELVAAISTGGSTNYADSVKGRFTISRDNAKNTVYLHMNSLKPEDTAVYYCADRYLYRMYYWGQCTQVTVSS	low polyreactivity
QVQLVESGGGLVQAGGSLRLSCAASGLTFWGYAMGWYRQAPGKEREFVASISSGGGSTYYADSVKGRFTISRDNAKNTVYLQMNSLKPEDTAVYYCNVDVHLYLYKSYTYRYYYWGQGTQVTVSS	low polyreactivity
QVQLVESGGGLVQAGGSLRLSCAASGSILGLNAMGWYRQAPGKERELVASISRRGGSTRYADSVKGRFTISRDNAKNTVYLQMNSLKPEDTAVYYCNAYHWDGDGVFYEYDYWGQGTQVTVSS	high polyreactivity
QVQLVESGGGLVQAGGSLRLSCAASGITLSTYAMGWYRPAPGKERELVATITGNGDRTYYADSVKGRFTISRDNAKNTVYLQMNSLKPEDTAVYYCAKDSPGDGIGYGYWGQGTQVTVSS	low polyreactivity
QVQLVESGGGLVQAGGSLRLSCAASGFTFRTNVMGWYRQAPGKERELVAVITRDGGSTYYADSVKGRFTISRDNAKNTVYLQMNSLKPEDTAVYYCNAAAFINFILYDYWGQGTQVTVSS	high polyreactivity
QLQLVESGGGLVQAGGSLRLSCAPTGRTFYRNAMGCKRPAPGKESELVASIRRNGGSTYYADSVKGRFTITRDNAKNTVYLPMNSMKPEDTAVYYCAAYFSYAGPKGAVYGMDYWGQGTQVTVSS	high polyreactivity
QVQLVESGGGLVQAGGSLRLSCAASGSILRSNAMGWYRQAPGKERELVATITNSGGSTYADSVKGCFTISRDNAKNTVYLQMNSLKPEDTAVYYCAKAGAGESIAKYDYWGQGTQVTVSS	low polyreactivity
QVQLVESVGGLVQAGGSLRLSCAASGRIFAPNAMGRYRQAPGKERELVAAITSRGSRTYYADSVKGRFTISRDIAKNTVYLQMKSLKPEDTAVYYCATPYRAPWGTARNYGLYYYWGQGTQVTVSS	high polyreactivity
QVQLEESGGCLVQAGGSLRLSCAASGIIFWDNALGWYRQAPGKERELVASINYSGGSTYYADSVKGRFTNSRDNAKNTVYLQMNSLKPEDTAVYYCAARTVTLDDWDYAYDYWVQGTQVTVSS	low polyreactivity
QVQLVESGGGLVQAGGSLRLSCAASGSIFDWYAIGWYRQAPGKEGELVAAISSGDSTYYADSVKGRFTISRDNAKNTVVLQMNSLKAEETSVSDCAAVTKLSGIRYNYWGQGSQVTVSS	low polyreactivity
QVHLVESGGGLVQAGGSLRLSCAASGFTFVQYAMGWYRQAPGKERELVATISKSGGITYYADSVKGRFTISRDNAKNTVYLQMNSLKPEDTSVYYCAAAWYYSSRGFHATWGHDYWGQGTQVTVSS	low polyreactivity
QVQLVDSGGGLVQAGGSLRLSCAASGSILVYYAMGWYRQAPGKERELVAAISSGGSTNYADSVKGRFTISRDNANNTVYLKINSLKPEDTAVYYCAKPDRTGWLEGDYWGQGTQVSVSS	low polyreactivity
QVQLVESGGGLVQAGGSLRLSCAASGSTFKRYAMGWYRQAPGKERALVASISSGGSTNYADSVKGRFTISRDNAKNTVYLQMHSLKPEDTAVYYCAVSYRSFRYYWERYYSWGQGTQVTVSS	high polyreactivity

Sequence	polyreactivity (PSR sort gate)
QVQLVESGGGLVQAGGSLRLSCAASGSTFLTKAMGWNRQAPGKERELVAAISRSGGSTYYADSVKGRFTISRDNAKNTVYLQMNSLKPEDTAVYYGAAYSWRYQAWEFGYWGQGTQVTVSS	high polyreactivity
QVQLVESGGGLVQAGGSLRLSSDASGRIFYVYTMGWYRQAPGKEREFVAAISDSGGSTYYADSVKGRFTISRDNAKNTVYLQMNSLQTEDTAVYYCNAGYGPAAYYWYYGGYYYWGQGTQVTVSS	low polyreactivity
QVQLVESGGCLVQAGGSLRLSCAASGYIFSGYAMGWYRQAPGKERELVAAISSNGGSTYYADSVKGRFTISRDNAKNTVYLPMNSMKPEDTAVYYCKRGLAARVGRVDYWGQGTHVTVSS	low polyreactivity
QVQLVESGGGLVQAGGSLRLSCAASGFTLQVYDMGWYRQAPGKERELVADISGSGDSTNYADSVKGRFTISRDNAKNTVYLQMNSLKPEDTAVYYCAAEVRGGYYGYDYWGQGTQVTVSS	low polyreactivity
QVQLVESGGGLVQAGGSLRLSCAASGNIFANYAMGWYRQAPGKERELVAAIRWSASRTYYADSVKGRFTISRDNAKNTVYLQMNSLIPEDTAVYYCAATIYTFWDYYYDYWGQGTQVTVSS	high polyreactivity
QVQLVESGGGLVQAGGSLRLTCAASGRIFYNYAMGWYRQAPGKERELLAAISGSGGSTYYADSVKGRFTISRDNAKNSVYLQMNSLKPEDTAVYYCSTSCPQYYSRNFDYWGQGTQVTVSS	low polyreactivity
QVQLVESGGGLVQPGGSLRLSCAASGSTFEYNAMGWYRQAPGKERELVASSTNYADSVKGRFTISRDNAKNTVYLQMNSLKPEDTAVYYCAREQGVNRNHDYWGQGTQVTVSS	low polyreactivity
QVQLVESGGGLVQAGGSLRLSCAASGLILSSNAMGWYRQAPGKERELVAAITWDGDRTYADSVKGRFTISRDNAKNTVYLQMNSLKPEDTAVYYCAAPSYVSYDSEFGYWGQGTQVTVSS	low polyreactivity
QVQLVESGGGLVQAGGSLRLSCAASGVIFSFYAMGWDREAPGKERELVAAISSSGSTNYADSVKGRFTISRDNAKNTVYLQMNSLKPEDTAVYYCNTYFRYFSFYGRPFDYWGQGTQVTVSS	high polyreactivity
QVQLVESGVGLVQAGGSLRISCAASGFIFVTNVMGWYRQAPGKEREFVAAITARGGTTYYADSVKGRFTISRDNAKNTVYLQMNRLKPEDTAVYYCAAGYGVIKSLSHFYYWGQGTQVTVSS	low polyreactivity
QVQLVESGGGLVQAGGSLRLSCAASGSIFVGYAMGWYRQAPGKERELVAAIRWSGGSTYYADSVKGRFTISRDNAKNTVYLQMNSLKPEDTAVYYCAKYFPAGYYYWGQGTQVTVSS	low polyreactivity
QVQLVESGGGLVQAGGSLRLSCAASGLTFYSNAMGWYRQAPGKERELVAAITWRSVRTYYADSVKGRFTISRDNAKNTVYLQMNSLKPEDTAVYYCAAASASRHGEYDYWGQGTQVTVSS	low polyreactivity
QVQLVESGGGLVQAGGSLRLTCAASGGIFGINAMRWYRQAPGKERELVAAITSGDSTNYADSVKGRFTISRDNAKNTVYLQMNSLKPEDTAVYYCNADPDTYVSTITHDSWGQGTQVTVSS	low polyreactivity
QVQLVESGGGLVQAGGSLRLSCAASGRTFGVNAMGWYRQAPGKERELVAAISRSTGSTYYADSVKGRFTISRDNAKNTVYLQMNSLKPEDTAVYYCARDVYYRGYKYGYWGQGTQVTVSS	high polyreactivity
QVQLVESGGGLVQAGGSLRLSCAASGSIFGRYAKRWYRQAPGKERELVAAISWNGGSTYYADSVKGRFTISRDNAKKTVDLQMNSLKPEDPAVYYCAVLSWWTKLSRRFYYWGQGTQVTVSS	high polyreactivity
QVQLVESGGGLVQAGGSLRLSCAASGSTFTRYAMGWYRQAPGKERELVAAISSSAGRTYYADSVKGRFTISRDYAKNTVYLQMKSLKPEDTAVYYCAATRVYAGAQYDYWGQGTKVTVSS	high polyreactivity
QVQLVESGGGLVQAGGSLRLSCAASGRTIPHNAMGWYRQAPGKERQLVATITAGSGSTYYADSVKGRFTISRDNAKNTVSLQLNSLKPEDTAVYYCNAKWTLYQSDYWYYIYDYWGQGTQVTVSS	low polyreactivity
QVQLVESGGGLVQAGGSLRLSCAASGFIIAPNAMGWYRQAPGKDRELVAAISGGGSTYYADSVKGRFTISRDNAKNTVYLQMNSLKPEDTAVYYCAVAGRRGDEYDYWGQGTQVTVSS	low polyreactivity
QVQHVESGGGLVQAGGSLRLSCAASGRIFYSNTMGWYRQAPGKERELVAAITWRGGRTHYADSVKGRFTISRDNAKNTVYLQMNSLKPEDTAVYYCAARYIPIQYPSYRTWGGYSWGQGTQVTVSS	high polyreactivity
QVQLVESGAGLVQAGGSLRLSCAPSGRIFEYNAMGWYRQAPGKESELVAAIRSGGGSTYYADSVKGRFTISRDNAKNTVYLQMNSLNPEDTAVYYCAARRKRVSFYAEYDYWGQGTQVTVSS	low polyreactivity
